Test results from US7442519B2, “KCNQ2-15 potassium channel” (priority 2002, dated 2008).

T1: PP2A/Bγ (Homo sapiens, UniProt Q9Y2T4, E66D/G293D/R253P)
T1 construct: The full-length coding region of the PPP2R2C gene, which encodes the PP2A/Bγ subunit; expressed in transfected cells; host or cells: Saccharomyces cerevisiae (AH109 / Y184 mating partners)
T1 sequence (Q9Y2T4 1-447 E66D/R253P/G293D): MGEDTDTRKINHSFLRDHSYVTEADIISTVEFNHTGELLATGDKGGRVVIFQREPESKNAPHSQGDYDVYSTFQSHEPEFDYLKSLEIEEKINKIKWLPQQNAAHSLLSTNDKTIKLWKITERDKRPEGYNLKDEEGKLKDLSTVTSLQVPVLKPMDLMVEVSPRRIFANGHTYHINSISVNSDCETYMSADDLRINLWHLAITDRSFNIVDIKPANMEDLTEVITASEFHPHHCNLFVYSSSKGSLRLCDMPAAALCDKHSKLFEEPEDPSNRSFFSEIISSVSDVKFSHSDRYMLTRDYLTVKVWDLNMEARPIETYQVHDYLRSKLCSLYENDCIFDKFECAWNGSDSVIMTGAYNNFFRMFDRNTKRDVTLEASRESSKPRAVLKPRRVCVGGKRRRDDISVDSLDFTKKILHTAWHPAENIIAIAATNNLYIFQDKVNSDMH

B1: GST-2E11: fusion protein between a KCNQ2-15b polypeptide comprising exons 13, 14 and 15b and GST (protein)
chain: SSQKVSLKDRVFSSPRGVAAKGKGSPQAQTVRRSPSADQSLEDSPSKVPKSWSFGDRSRARQAFRIKGAASRQNSEEASLPGEDIVDDKSCPCEFVTEDLTPGLKVSIRAVCVMRFLVSKRKFKESLRPYDVMDVIEQYSAGHLDMLSRIKSLQSRQEPRLPVQQGTRTGWASGTKPTVAHGGSAGGVWAGPPPHPRRPLSASVVSSQSLF
modifications: left off: a dimerising Fc or GST
notes: fusion protein between a KCNQ2-15b polypeptide comprising exons 13, 14 and 15b and GST
B2: KCNQ2-15bx: polypeptide of SEQ ID NO: 2, novel KCNQ2 splice variant (protein, listed as Homo sapiens)
chain: MVQKSRNGGVYPGPSGEKKLKVGFVGLDPGAPDSTRDGALLIAGSEAPKRGSILSKPRAGGAGAGKPPKRNAFYRKLQNFLYNVLERPRGWAFIYHAYVFLLVFSCLVLSVFSTIKEYEKSSEGALYILEIVTIVVFGVEYFVRIWAAGCCCRYRGWRGRLKFARKPFCVIDIMVLIASIAVLAAGSQGNVFATSALRSLRFLQILRMIRMDRRGGTWKLLGSVVYAHSKELVTAWYIGFLCLILASFLVYLAEKGENDHFDTYADALWWGLITLTTIGYGDKYPQTWNGRLLAATFTLIGVSFFALPAGILGSGFALKVQEQHRQKHFEKRRNPAAGLIQSAWRFYATNLSRTDLHSTWQYYERTVTVPMYSSQTQTYGASRLIPPLNQLELLRNLKSKSGLAFRKDPPPEPSPSKGSPCRGPLCGCCPGRSSQKVSLKDRVFSSPRGVAAKGKGSPQAQTVRRSPSADQSLEDSPSKVPKSWSFGDRSRARQAFRIKGAASRQNSEEASLPGEDIVDDKSCPCEFVTEDLTPGLKVSIRAVCVMRFLVSKRKFKESLRPYDVMDVIEQYSAGHLDMLSRIKSLQSRQEPRLPVQQGTRTGWASGTKPTVAHGGSAGGVWAGPPPHPRRPLSASVVSSQSLF
B3: KCNQ2-15by: polypeptide of SEQ ID NO: 4, novel KCNQ2 splice variant (protein, listed as Homo sapiens)
chain: MVQKSRNGGVYPGPSGEKKLKVGFVGLDPGAPDSTRDGALLIAGSEAPKRGSILSKPRAGGAGAGKPPKRNAFYRKLQNFLYNVLERPRGWAFIYHAYVFLLVFSCLVLSVFSTIKEYEKSSEGALYILEIVTIVVFGVEYFVRIWAAGCCCRYRGWRGRLKFARKPFCVIDIMVLIASIAVLAAGSQGNVFATSALRSLRFLQILRMIRMDRRGGTWKLLGSVVYAHSKELVTAWYIGFLCLILASFLVYLAEKGENDHFDTYADALWWGLITLTTIGYGDKYPQTWNGRLLAATFTLIGVSFFALPAGILGSGFALKVQEQHRQKHFEKRRNPAAGLIQSAWRFYATNLSRTDLHSTWQYYERTVTVPMYSSQTQTYGASRLIPPLNQLELLRNLKSKSGLAFRKDPPPEPSPSQKVSLKDRVFSSPRGVAAKGKGSPQAQTVRRSPSADQSLEDSPSKVPKSWSFGDRSRARQAFRIKGAASRQNSEEASLPGEDIVDDKSCPCEFVTEDLTPGLKVSIRAVCVMRFLVSKRKFKESLRPYDVMDVIEQYSAGHLDMLSRIKSLQSRQEPRLPVQQGTRTGWASGTKPTVAHGGSAGGVWAGPPPHPRRPLSASVVSSQSLF

What was measured:
[1] = test system: GSK-3β and PKA; assay: In vitro phosphorylation assay of GST-2E11 with recombinant GSK-3β kinase and PKA; format: biochemical; conditions: LiCl added to the kination mix; signal negatively correlated with LiCl concentration
Method: Expression and purification of the GST-2E11 fusion protein were performed as described above. Beads with bound fusion protein corresponding to 1 ml of bacterial clear lysate were washed three times in NETN and one time with HMK buffer without DTT (20 mM Tris-HCl [pH 7.5], 120 mM NaCl, 12 mM MgCl2). Beads were resuspended in 240 μl of reaction mix (24 μl of 10×HMK Buffer with 20 mM DTT, 40 units of Protein Kinase A Catalytic Subunit [PKA from bovine heart, 250 units/vial, Sigma] in 40 mM DTT, 5 μl of 24 mM ATP and 207 μl of distilled water) and incubated for 30 min at room temperature. Beads were then washed three times in NETN buffer and one time in GSK-3β reaction buffer (20 mM Tris-HCl [pH 7.5], 10 mM MgCl2, 5 mM DTT) (New England Biolabs). Beads were then resuspended in 50 μl of reaction mix (5 μl of 10×GSK-3β reaction buffer, 1 μl of [^32P]γATP 10 mCi/ml, 50 U of recombinant GSK-3β[New England Biolabs], and distilled water for a final volume of 50 μl) and incubated at room temperature for 30 min. After three washes in NETN buffer, phosphorylated proteins were boiled in 2×Sample Buffer (125 mM Tris-HCl [pH 6.8], 4% SDS, 20% glycerol, 1.4 M β-Mercapto ethanol), resolved by 10% SDS-PAGE, and visualized by autoradiography.
In this phosphorylation assay, non-radiolabeled polypeptides to be tested are incubated in the presence of GSK-3β, PKA and radioactive ATP. […]

[2] = target: T1, PP2A/Bγ; assay: Solid phase overlay assay with radiolabeled GST-PPP2R2C probe; format: binding; conditions: 100 ng, 10 ng and 0.1 ng loaded; band intensity proportional to loaded quantity
Method: Solid phase overlay assays were performed by adapting the method described by Kaelin and collaborators (Kaelin et al., 1992, Cell, 70:351-364). 100 ng, 10 ng and 0.1 ng of GST and GST-2E11 recombinant proteins were resolved by 9% SDS-PAGE and were transferred by electroblotting onto nitrocellulose membrane (nitrocellulose transfer membrane Protran BA 83, Schleicher and Schuell). The membrane were then blocked in HBB buffer (25 mM Hepes-KOH [pH 7.7], 25 mM NaCl, 5 mM MgCl2) with 5% (w/v) non-fat dry milk, 1 mM DTT, 0.05% Nonidet P-40 for 1 hr at room temperature. The binding reaction was carried out at room temperature in Hyb75 buffer (20 mM Hepes [pH 7.7], 75 mM KCl, 2.5 mM MgCl2, 0.1 mM EDTA, 0.05% Nonidet P-40) with 1% (w/v) non-fat dry milk, 1 mM DTT, 1 mM PMSF and 3.5 10^5dpm of a [^32P]-γATP GST-PPP2R2C radiolabeled recombinant protein used as a probe. After 4.5 hr of incubation, the membrane was washed with Hyb75 buffer, 1 mM DTT, 1% (w/v) non-fat dry milk three times for 15 min at room temperature. The blots were analyzed by autoradiography.
This experiment was performed to validate the interaction between KCNQ2-15b polypeptides and PP2A/Bγ. In this experiment, the PP2A/Bγ subunit was radiolabeled but not the proteins present on the nitrocellulose membrane. […] Furthermore, the intensity of the bands was proportional to the quantity of loaded GST-2E11. […]

[3] = test system: Xenopus laevis oocytes; assay: Electrophysiological analysis (two-electrode voltage clamp) of homotetrameric potassium channels; format: cell-based; conditions: 0.4 ng of DNA injected
Method: The animal was anesthetized and pieces of the ovary were surgically removed and individual oocytes were dissected away in a saline solution (ND96) containing 96 mM NaCl, 2 mM KCl, 2 mM CaCl2, 2 mM MgCl2 and 5 mM HEPES at pH 7.4. Stage V and VI oocytes were treated at room temperanre for 2 h with collagenase type 1A (1 mg/ml) in the presence of 0.2 mg/ml trypsin inhibitor in saline solution to discard follicular cells. […] DNA corresponding to KCNQ2, 3H2 and 3H9 K+ channels were subcloned in PEKO vector in order to generate the respective cRNAS. cRNA concentrations were measured by absorbance at 260 nm. cRNA solutions were injected (about 50 nL/oocyte) using a pressure microinjector (Inject+matic, Geneve). Oocytes were then kept for 2-6 days in ND96 solution supplemented wirn 50 U/mL penicillin and 50 U/mL streptomycin.
In a 0.3 mL perfusion chamber, a single oocyte was impaled with two standard glass microelectrode (0.5-2 Mohm resistance) filled with 3M KCl and maintained under voltage clamp using a Dagan TEV200 amplifier system, USA. Electrical stimulations, data acquisition and analyses were performed using pClamp software (Axon Instruments, USA). […]

Molecule	intensity of the M-current generated by the homotetrameric potassium channel [3]	also measured
[Cl-].[Li+] [LiCl]	–	intensity of the phosphorylated GST-2E11 band [1]: decreased
B1	–	interaction with PP2A/Bγ (band by autoradiography) [2]: interacts
B2	about 800 nA	–
B3	about 700 nA	–
